Values quoted from earlier work in article PMC3234256.

Molecular target: Lys73 (UniProt position 71, MMSTFKVLLCG)
Assay: NMR

In the case of “TEM-1 beta-lactamase (class A) (Escherichia coli)”, the pKa is given as “above 10”.
